Source: patent publication US9958461B2, “Detection of protein to protein interactions” (THE GOVERNING COUNCIL OF THE UNIVERSITY OF TORONTO, priority 2013, dated 2018)

Columns and labels:
EGFR-L858R = biological target: T1, EGFR-L858R (Homo sapiens, UniProt P00533, L858R); assay: MaMTH EGFR-interactor screen, lentiviral preys against EGFR-L858R bait (interaction score); type: cell-based; details: MaMTH interaction score of prey with EGFR-L858R bait
T1 construct: with the advantage of testing full-length integral membrane proteins; (GGGGS)2 linker-Cub (human ubiquitin aa 35-76)-GAL4(1-147)-mNFkB(364-550) (C); expressed in transfected cells
Description: (§1) After lentivirus harvest, target cells (stable 5×GAL4UAS-luciferase reporter-HEK293T cells) were infected at a multiplicity of infection (MOI) of around 0.3-0.4 to ensure single copy integration per cell. Cells were selected in puromycin for at least 48 h and transfected with either EGFR-wildtype or EGFR-L858R baits in triplicates. 24 h after transfection, cells were lysed and luciferase assays performed. On each set of interaction assays, various negative controls were included. To calculate a MaMTH-interaction scores, negative controls were averaged and the fold-change of luciferase activity compared to the averaged controls was calculated and defined as the interaction score.
(§2) Each set of experiments contains a defined set of negative controls in at least three replicates. Negative controls were chosen as such that there is a range of controls showing high-background luciferase activity (normally cytosolic proteins: Fabp5, Pex19) as well as medium-background luciferase activity (membrane-bound interactors: Pex7, GABBR2). Negative controls were averaged and the fold-change of luciferase activity was calculated. Using this method, we have a stringent cut-off and chose an interaction score >1 to be interacting proteins.
(§3) Our cut-off of 1 is based on fold-change difference in luciferase activity over averaged negative controls. Negative controls include cytosolic preys (which tend to promiscuously bind to many proteins), plasma membrane- and peroxisomal-prey proteins. In general, we chose stringent conditions by testing preys that tend to have high luciferase background with any bait tested, in order to generate high-confidence interaction data. […] Phosphorylated tyrosine residues on the receptor are typically docking sites for downstream cytoplasmic targets and recognized through SH2 or PTB domains^43.

EGFR-Wt [1] = assay: MaMTH EGFR-interactor screen, lentiviral preys against EGFR-wildtype bait (interaction score); type: cell-based, human; details: ratio of EGFR-Wt mean to EGFR-L858R mean interaction score
Description: as §1, §2, §3

EGFR-Wt [2] = biological target: T2, EGFR-Wt (Homo sapiens, UniProt P00533); assay: as above; type: cell-based; details: MaMTH interaction score of prey with EGFR-Wt bait, mean
T2 construct: with the advantage of testing full-length integral membrane proteins; (GGGGS)2 linker-Cub (human ubiquitin aa 35-76)-GAL4(1-147)-mNFkB(364-550) (C); expressed in transfected cells
Description: as §1, §2, §3

Row | EGFR-L858R mean (EGFR-L858R) | EGFR-Wt mean (EGFR-Wt [2]) | Molecule | Wt/L858R (EGFR-Wt [1])
1 | 3.15 | 3.48 | RAPGEF1 (protein, UniProt Q13905 1-1077, looked up) Rap guanine nucleotide …: MDTDSQRSHLSSFTMKLMDKFHSPKIKRTPSKKGKPAEVSVKIPEKPVNKEATDRFLPEGYPLPLDLEQQAVEFMSTSAVASRSQRQKNLSWLEEKEKEVVSALRYFKTIVDKMAIDKKVLEMLPGSASKVLEAILPLVQNDPRIQHSSALSSCYSRVYQSLANLIRWSDQVMLEGVNSEDKEMVTTVKGVIKAVLDGVKELVRLTIEKQGRPSPTSPVKPSSPASKPDGPAELPLTDREVEILNKTTGMSQSTELLPDATDEEVAPPKPPLPGIRVVDNSPPPALPPKKRQSAPSPTRVAVVAPMSRATSGSSLPVGINRQDFDVDCYAQRRLSGGSHSYGGESPRLSPCSSIGKLSKSDEQLSSLDRDSGQCSRNTSCETLDHYDPDYEFLQQDLSNADQIPQQTAWNLSPLPESLGESGSPFLGPPFQLPLGGHPQPDGPLAPGQQTDTPPALPEKKRRSAASQTADGSGCRVSYERHPSQYDNISGEDLQSTAPIPSVPYAPFAAILPFQHGGSSAPVEFVGDFTAPESTGDPEKPPPLPEKKNKHMLAYMQLLEDYSEPQPSMFYQTPQNEHIYQQKNKLLMEVYGFSDSFSGVDSVQELAPPPALPPKQRQLEPPAGKDGHPRDPSAVSGVPGKDSRDGSERAPKSPDALESAQSEEEVDELSLIDHNEIMSRLTLKQEGDDGPDVRGGSGDILLVHATETDRKDLVLYCEAFLTTYRTFISPEELIKKLQYRYEKFSPFADTFKKRVSKNTFFVLVRVVDELCLVELTEEILKLLMELVFRLVCNGELSLARVLRKNILDKVDQKKLLRCATSSQPLAARGVAARPGTLHDFHSHEIAEQLTLLDAELFYKIEIPEVLLWAKEQNEEKSPNLTQFTEHFNNMSYWVRSIIMLQEKAQDRERLLLKFIKIMKHLRKLNNFNSYLAILSALDSAPIRRLEWQKQTSEGLAEYCTLIDSSSSFRAYRAALSEVEPPCIPYLGLILQDLTFVHLGNPDYIDGKVNFSKRWQQFNILDSMRCFQQAHYDMRRNDDIINFFNDFSDHLAEEALWELSLKIKPRNITRRKTDREEKT | 1.10
2 | 4.47 | 4.63 | ABL2 (protein, UniProt P42684 2-1182, looked up) Tyrosine-protein kinase ABL2: GQQVGRVGEAPGLQQPQPRGIRGSSAARPSGRRRDPAGRTTETGFNIFTQHDHFASCVEDGFEGDKTGGSSPEALHRPYGCDVEPQALNEAIRWSSKENLLGATESDPNLFVALYDFVASGDNTLSITKGEKLRVLGYNQNGEWSEVRSKNGQGWVPSNYITPVNSLEKHSWYHGPVSRSAAEYLLSSLINGSFLVRESESSPGQLSISLRYEGRVYHYRINTTADGKVYVTAESRFSTLAELVHHHSTVADGLVTTLHYPAPKCNKPTVYGVSPIHDKWEMERTDITMKHKLGGGQYGEVYVGVWKKYSLTVAVKTLKEDTMEVEEFLKEAAVMKEIKHPNLVQLLGVCTLEPPFYIVTEYMPYGNLLDYLRECNREEVTAVVLLYMATQISSAMEYLEKKNFIHRDLAARNCLVGENHVVKVADFGLSRLMTGDTYTAHAGAKFPIKWTAPESLAYNTFSIKSDVWAFGVLLWEIATYGMSPYPGIDLSQVYDLLEKGYRMEQPEGCPPKVYELMRACWKWSPADRPSFAETHQAFETMFHDSSISEEVAEELGRAASSSSVVPYLPRLPILPSKTRTLKKQVENKENIEGAQDATENSASSLAPGFIRGAQASSGSPALPRKQRDKSPSSLLEDAKETCFTRDRKGGFFSSFMKKRNAPTPPKRSSSFREMENQPHKKYELTGNFSSVASLQHADGFSFTPAQQEANLVPPKCYGGSFAQRNLCNDDGGGGGGSGTAGGGWSGITGFFTPRLIKKTLGLRAGKPTASDDTSKPFPRSNSTSSMSSGLPEQDRMAMTLPRNCQRSKLQLERTVSTSSQPEENVDRANDMLPKKSEESAAPSRERPKAKLLPRGATALPLRTPSGDLAITEKDPPGVGVAGVAAAPKGKEKNGGARLGMAGVPEDGEQPGWPSPAKAAPVLPTTHNHKVPVLISPTLKHTPADVQLIGTDSQGNKFKLLSEHQVTSSGDKDRPRRVKPKCAPPPPPVMRLLQHPSICSDPTEEPTALTAGQSTSETQEGGKKAALGAVPISGKAGRPVMPPPQVPLPTSSISPAKMANGTAGTKVALRKTKQAAEKISADKISKEALLECADLLSSALTEPVPNSQLVDTGHQLLDYCSGYVDCIPQTRNKFAFREAVSKLELSLQELQVSSAAAGVPGTNPVLNNLLSCVQEISDVVQR | 1.04
3 | 7.17 | 7.16 | CAMLG (protein, UniProt P49069 1-296, looked up) Guided entry of tail-anchored …: MESMAVATDGGERPGVPAGSGLSASQRRAELRRRKLLMNSEQRINRIMGFHRPGSGAEEESQTKSKQQDSDKLNSLSVPSVSKRVVLGDSVSTGTTDQQGGVAEVKGTQLGDKLDSFIKPPECSSDVNLELRQRNRGDLTADSVQRGSRHGLEQYLSRFEEAMKLRKQLISEKPSQEDGNTTEEFDSFRIFRLVGCALLALGVRAFVCKYLSIFAPFLTLQLAYMGLYKYFPKSEKKIKTTVLTAALLLSGIPAEVINRSMDTYSKMGEVFTDLCVYFFTFIFCHELLDYWGSEVP | 1.00
4 | 8.12 | 1.79 | GRAP2 (protein, UniProt O75791 1-330, looked up) GRB2-related adapter protein 2: MEAVAKFDFTASGEDELSFHTGDVLKILSNQEEWFKAELGSQEGYVPKNFIDIQFPKWFHEGLSRHQAENLLMGKEVGFFIIRASQSSPGDFSISVRHEDDVQHFKVMRDNKGNYFLWTEKFPSLNKLVDYYRTNSISRQKQIFLRDRTREDQGHRGNSLDRRSQGGPHLSGAVGEEIRPSMNRKLSDHPPTLPLQQHQHQPQPPQYAPAPQQLQQPPQQRYLQHHHFHQERRGGSLDINDGHCGTGLGSEMNAALMHRRHTDPVQLQAAGRVRWARALYDFEALEDDELGFHSGEVVEVLDSSNPSWWTGRLHNKLGLFPANYVAPMTR | 0.22
5 | 3.26 | 3.41 | SH3GL3 (protein, UniProt Q99963 1-347, looked up) Endophilin-A3: MSVAGLKKQFHKASQLFSEKISGAEGTKLDDEFLDMERKIDVTNKVVAEILSKTTEYLQPNPAYRAKLGMLNTVSKIRGQVKTTGYPQTEGLLGDCMLKYGKELGEDSTFGNALIEVGESMKLMAEVKDSLDINVKQTFIDPLQLLQDKDLKEIGHHLKKLEGRRLDYDYKKKRVGKIPDEEVRQAVEKFEESKELAERSMFNFLENDVEQVSQLAVFIEAALDYHRQSTEILQELQSKLQMRISAASSVPRREYKPRPVKRSSSELNGVSTTSVVKTTGSNIPMDQPCCRGLYDFEPENQGELGFKEGDIITLTNQIDENWYEGMIHGESGFFPINYVEVIVPLPQ | 1.05
6 | 16.20 | 16.92 | ZAP70 (protein, UniProt P43403 1-619, looked up) Tyrosine-protein kinase ZAP-70: MPDPAAHLPFFYGSISRAEAEEHLKLAGMADGLFLLRQCLRSLGGYVLSLVHDVRFHHFPIERQLNGTYAIAGGKAHCGPAELCEFYSRDPDGLPCNLRKPCNRPSGLEPQPGVFDCLRDAMVRDYVRQTWKLEGEALEQAIISQAPQVEKLIATTAHERMPWYHSSLTREEAERKLYSGAQTDGKFLLRPRKEQGTYALSLIYGKTVYHYLISQDKAGKYCIPEGTKFDTLWQLVEYLKLKADGLIYCLKEACPNSSASNASGAAAPTLPAHPSTLTHPQRRIDTLNSDGYTPEPARITSPDKPRPMPMDTSVYESPYSDPEELKDKKLFLKRDNLLIADIELGCGNFGSVRQGVYRMRKKQIDVAIKVLKQGTEKADTEEMMREAQIMHQLDNPYIVRLIGVCQAEALMLVMEMAGGGPLHKFLVGKREEIPVSNVAELLHQVSMGMKYLEEKNFVHRDLAARNVLLVNRHYAKISDFGLSKALGADDSYYTARSAGKWPLKWYAPECINFRKFSSRSDVWSYGVTMWEALSYGQKPYKKMKGPEVMAFIEQGKRMECPPECPPELYALMSDCWIYKWEDRPDFLTVEQRMRACYYSLASKVEGPPGSTQKAEAACA | 1.04
7 | 2.92 | 3.05 | APBB2 (protein, UniProt Q92870 1-758, looked up) Amyloid beta precursor …: MSEVLPADSGVDTLAVFMASSGTTDVTNRNSPATPPNTLNLRSSHNELLNAEIKHTETKNSTPPKCRKKYALTNIQAAMGLSDPAAQPLLGNGSANIKLVKNGENQLRKAAEQGQQDPNKNLSPTAVINITSEKLEGKEPHPQDSSSCEILPSQPRRTKSFLNYYADLETSARELEQNRGNHHGTAEEKSQPVQGQASTIIGNGDLLLQKPNRPQSSPEDGQVATVSSSPETKKDHPKTGAKTDCALHRIQNLAPSDEESSWTTLSQDSASPSSPDETDIWSDHSFQTDPDLPPGWKRVSDIAGTYYWHIPTGTTQWERPVSIPADLQGSRKGSLSSVTPSPTPENEKQPWSDFAVLNGGKINSDIWKDLHAATVNPDPSLKEFEGATLRYASLKLRNAPHPDDDDSCSINSDPEAKCFAVRSLGWVEMAEEDLAPGKSSVAVNNCIRQLSYCKNDIRDTVGIWGEGKDMYLILENDMLSLVDPMDRSVLHSQPIVSIRVWGVGRDNGRDFAYVARDKDTRILKCHVFRCDTPAKAIATSLHEICSKIMAERKNAKALACSSLQERANVNLDVPLQVDFPTPKTELVQKFHVQYLGMLPVDKPVGMDILNSAIENLMTSSNKEDWLSVNMNVADATVTVISEKNEEEVLVECRVRFLSFMGVGKDVHTFAFIMDTGNQRFECHVFWCEPNAGNVSEAVQAACMLRYQKCLVARPPSQKVRPPPPPADSVTRRVTTNVKRGVLSLIDTLKQKRPVTEMP | 1.05
